Experimental data published in the supplement of paper PMC9876800.

Tested on: peptide library, one residue held at a place counted from the S/T acceptor
Test: relative phosphorylation of the sub-library (ratio to the mean residue at this position); Pediculus humanus corporis; higher = residue favoured
Procedure, shortened: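 Purified recombinant kinases were reacted in 384-well plates with biotinylated degenerate peptide sub-libraries, each having one residue fixed at one position around a central Ser/Thr. The reaction mix contained 50 μM peptide plus 50 μM ATP spiked with γ-32P-ATP and ran for 90 min under kinase-specific conditions. Relative sub-library phosphorylation, taken from densitometry of phosphorimaged streptavidin membrane spots, is a ratio to the mean residue at that position.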

Chain of PINK1, construct: aa126-end (E0W1I1 126-575, looked up): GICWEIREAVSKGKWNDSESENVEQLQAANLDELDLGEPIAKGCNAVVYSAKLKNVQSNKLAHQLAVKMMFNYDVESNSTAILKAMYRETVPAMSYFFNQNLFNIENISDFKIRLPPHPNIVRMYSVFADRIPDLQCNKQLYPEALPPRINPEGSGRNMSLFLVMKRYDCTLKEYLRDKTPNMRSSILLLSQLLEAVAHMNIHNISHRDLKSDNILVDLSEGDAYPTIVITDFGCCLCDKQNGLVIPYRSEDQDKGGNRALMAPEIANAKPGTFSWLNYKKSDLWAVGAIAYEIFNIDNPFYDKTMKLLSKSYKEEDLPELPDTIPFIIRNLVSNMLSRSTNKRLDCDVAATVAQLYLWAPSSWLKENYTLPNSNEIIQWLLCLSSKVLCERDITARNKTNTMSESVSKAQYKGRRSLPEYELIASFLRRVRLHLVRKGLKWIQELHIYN

PINK1, construct: aa126-end (from UniProt E0W1I1)
relative phosphorylation (A fixed, at +1): 0.566
relative phosphorylation (A fixed, at +2): 1.09
relative phosphorylation (A fixed, at +3): 0.757
relative phosphorylation (A fixed, at +4): 0.761
relative phosphorylation (A fixed, at -1): 1.01
relative phosphorylation (A fixed, at -2): 0.871
relative phosphorylation (A fixed, at -3): 0.867
relative phosphorylation (A fixed, at -4): 0.921
relative phosphorylation (A fixed, at -5): 1.04
relative phosphorylation (D fixed, at +1): 0.454
relative phosphorylation (D fixed, at +2): 0.704
relative phosphorylation (D fixed, at +3): 0.585
relative phosphorylation (D fixed, at +4): 0.547
relative phosphorylation (D fixed, at -1): 0.982
relative phosphorylation (D fixed, at -2): 0.416
relative phosphorylation (D fixed, at -3): 1.11
relative phosphorylation (D fixed, at -4): 1.49
relative phosphorylation (D fixed, at -5): 1.67
relative phosphorylation (E fixed, at +1): 0.292
relative phosphorylation (E fixed, at +2): 0.655
relative phosphorylation (E fixed, at +3): 0.509
relative phosphorylation (E fixed, at +4): 0.54
relative phosphorylation (E fixed, at -1): 1.22
relative phosphorylation (E fixed, at -2): 0.781
relative phosphorylation (E fixed, at -3): 0.81
relative phosphorylation (E fixed, at -4): 1.81
relative phosphorylation (E fixed, at -5): 1.48
relative phosphorylation (F fixed, at +1): 0.496
relative phosphorylation (F fixed, at +2): 1.06
relative phosphorylation (F fixed, at +3): 1.11
relative phosphorylation (F fixed, at +4): 0.954
relative phosphorylation (F fixed, at -1): 0.612
relative phosphorylation (F fixed, at -2): 1.25
relative phosphorylation (F fixed, at -3): 1.43
relative phosphorylation (F fixed, at -4): 1.01
relative phosphorylation (F fixed, at -5): 1.21
relative phosphorylation (G fixed, at +1): 1.94
relative phosphorylation (G fixed, at +2): 0.875
relative phosphorylation (G fixed, at +3): 0.873
relative phosphorylation (G fixed, at +4): 1.02
relative phosphorylation (G fixed, at -1): 0.812
relative phosphorylation (G fixed, at -2): 0.416
relative phosphorylation (G fixed, at -3): 0.579
relative phosphorylation (G fixed, at -4): 0.946
relative phosphorylation (G fixed, at -5): 0.806
relative phosphorylation (H fixed, at +1): 0.954
relative phosphorylation (H fixed, at +2): 1.11
relative phosphorylation (H fixed, at +3): 1.15
relative phosphorylation (H fixed, at +4): 1.04
relative phosphorylation (H fixed, at -1): 0.945
relative phosphorylation (H fixed, at -2): 0.84
relative phosphorylation (H fixed, at -3): 0.964
relative phosphorylation (H fixed, at -4): 1.25
relative phosphorylation (H fixed, at -5): 1.09
relative phosphorylation (I fixed, at +1): 0.55
relative phosphorylation (I fixed, at +2): 0.712
relative phosphorylation (I fixed, at +3): 0.657
relative phosphorylation (I fixed, at +4): 0.789
relative phosphorylation (I fixed, at -1): 0.604
relative phosphorylation (I fixed, at -2): 1.55
relative phosphorylation (I fixed, at -3): 0.774
relative phosphorylation (I fixed, at -4): 0.696
relative phosphorylation (I fixed, at -5): 0.863
relative phosphorylation (K fixed, at +1): 1.59
relative phosphorylation (K fixed, at +2): 1
relative phosphorylation (K fixed, at +3): 1.41
relative phosphorylation (K fixed, at +4): 1.4
relative phosphorylation (K fixed, at -1): 0.952
relative phosphorylation (K fixed, at -2): 0.828
relative phosphorylation (K fixed, at -3): 0.387
relative phosphorylation (K fixed, at -4): 0.596
relative phosphorylation (K fixed, at -5): 0.754
relative phosphorylation (L fixed, at +1): 0.517
relative phosphorylation (L fixed, at +2): 0.76
relative phosphorylation (L fixed, at +3): 0.676
relative phosphorylation (L fixed, at +4): 0.802
relative phosphorylation (L fixed, at -1): 1.14
relative phosphorylation (L fixed, at -2): 0.907
relative phosphorylation (L fixed, at -3): 2.14
relative phosphorylation (L fixed, at -4): 0.739
relative phosphorylation (L fixed, at -5): 0.889
relative phosphorylation (M fixed, at +1): 0.626
relative phosphorylation (M fixed, at +2): 0.982
relative phosphorylation (M fixed, at +3): 0.832
relative phosphorylation (M fixed, at +4): 0.902
relative phosphorylation (M fixed, at -1): 1.23
relative phosphorylation (M fixed, at -2): 2.75
relative phosphorylation (M fixed, at -3): 1.57
relative phosphorylation (M fixed, at -4): 0.804
relative phosphorylation (M fixed, at -5): 0.923
relative phosphorylation (N fixed, at +1): 2.33
relative phosphorylation (N fixed, at +2): 1.02
relative phosphorylation (N fixed, at +3): 1.17
relative phosphorylation (N fixed, at +4): 0.858
relative phosphorylation (N fixed, at -1): 1.52
relative phosphorylation (N fixed, at -2): 0.589
relative phosphorylation (N fixed, at -3): 0.694
relative phosphorylation (N fixed, at -4): 1.18
relative phosphorylation (N fixed, at -5): 0.888
relative phosphorylation (P fixed, at +1): 2.36
relative phosphorylation (P fixed, at +2): 1.41
relative phosphorylation (P fixed, at +3): 1.06
relative phosphorylation (P fixed, at +4): 1.08
relative phosphorylation (P fixed, at -1): 0.419
relative phosphorylation (P fixed, at -2): 0.316
relative phosphorylation (P fixed, at -3): 0.429
relative phosphorylation (P fixed, at -4): 0.63
relative phosphorylation (P fixed, at -5): 0.878
relative phosphorylation (Q fixed, at +1): 0.786
relative phosphorylation (Q fixed, at +2): 1
relative phosphorylation (Q fixed, at +3): 0.957
relative phosphorylation (Q fixed, at +4): 0.983
relative phosphorylation (Q fixed, at -1): 1.72
relative phosphorylation (Q fixed, at -2): 1.06
relative phosphorylation (Q fixed, at -3): 0.609
relative phosphorylation (Q fixed, at -4): 0.831
relative phosphorylation (Q fixed, at -5): 0.733
relative phosphorylation (R fixed, at +1): 2.05
relative phosphorylation (R fixed, at +2): 1.57
relative phosphorylation (R fixed, at +3): 2.21
relative phosphorylation (R fixed, at +4): 2.15
relative phosphorylation (R fixed, at -1): 1.58
relative phosphorylation (R fixed, at -2): 1.02
relative phosphorylation (R fixed, at -3): 0.815
relative phosphorylation (R fixed, at -4): 0.676
relative phosphorylation (R fixed, at -5): 0.75
relative phosphorylation (V fixed, at +1): 0.474
relative phosphorylation (V fixed, at +2): 0.805
relative phosphorylation (V fixed, at +3): 0.737
relative phosphorylation (V fixed, at +4): 0.692
relative phosphorylation (V fixed, at -1): 0.716
relative phosphorylation (V fixed, at -2): 0.838
relative phosphorylation (V fixed, at -3): 0.441
relative phosphorylation (V fixed, at -4): 0.595
relative phosphorylation (V fixed, at -5): 0.806
relative phosphorylation (W fixed, at +1): 0.455
relative phosphorylation (W fixed, at +2): 1.03
relative phosphorylation (W fixed, at +3): 1.14
relative phosphorylation (W fixed, at +4): 1.47
relative phosphorylation (W fixed, at -1): 0.772
relative phosphorylation (W fixed, at -2): 1.55
relative phosphorylation (W fixed, at -3): 1.74
relative phosphorylation (W fixed, at -4): 1.48
relative phosphorylation (W fixed, at -5): 1.17
relative phosphorylation (Y fixed, at +1): 0.548
relative phosphorylation (Y fixed, at +2): 1.2
relative phosphorylation (Y fixed, at +3): 1.17
relative phosphorylation (Y fixed, at +4): 1.01
relative phosphorylation (Y fixed, at -1): 0.775
relative phosphorylation (Y fixed, at -2): 1.03
relative phosphorylation (Y fixed, at -3): 1.65
relative phosphorylation (Y fixed, at -4): 1.35
relative phosphorylation (Y fixed, at -5): 1.04
relative phosphorylation (pThr fixed, at +1): 0.442
relative phosphorylation (pThr fixed, at +2): 0.775
relative phosphorylation (pThr fixed, at +3): 0.7
relative phosphorylation (pThr fixed, at +4): 0.556
relative phosphorylation (pThr fixed, at -1): 0.306
relative phosphorylation (pThr fixed, at -2): 0.5
relative phosphorylation (pThr fixed, at -3): 0.537
relative phosphorylation (pThr fixed, at -4): 1.01
relative phosphorylation (pThr fixed, at -5): 1.67
relative phosphorylation (pTyr fixed, at +1): 0.458
relative phosphorylation (pTyr fixed, at +2): 1.66
relative phosphorylation (pTyr fixed, at +3): 0.834
relative phosphorylation (pTyr fixed, at +4): 0.71
relative phosphorylation (pTyr fixed, at -1): 1.09
relative phosphorylation (pTyr fixed, at -2): 1.06
relative phosphorylation (pTyr fixed, at -3): 3.15
relative phosphorylation (pTyr fixed, at -4): 1.66
relative phosphorylation (pTyr fixed, at -5): 1.26
